This is an account of results in IntAct's records for PubMed 31515488.

Sequences and labels used below:
B1: Protein transport protein (Homo sapiens), Q15437 (parent)
chain: MATYLEFIQQNEERDGVRFSWNVWPSSRLEATRMVVPLACLLTPLKERPDLPPVQYEPVLCSRPTCKAVLNPLCQVDYRAKLWACNFCFQRNQFPPAYGGISEVNQPAELMPQFSTIEYVIQRGAQSPLIFLYVVDTCLEEDDLQALKESLQMSLSLLPPDALVGLITFGRMVQVHELSCEGISKSYVFRGTKDLTAKQIQDMLGLTKPAMPMQQARPAQPQEHPFASSRFLQPVHKIDMNLTDLLGELQRDPWPVTQGKRPLRSTGVALSIAVGLLEGTFPNTGARIMLFTGGPPTQGPGMVVGDELKIPIRSWHDIEKDNARFMKKATKHYEMLANRTAANGHCIDIYACALDQTGLLEMKCCANLTGGYMVMGDSFNTSLFKQTFQRIFTKDFNGDFRMAFGATLDVKTSRELKIAGAIGPCVSLNVKGPCVSENELGVGGTSQWKICGLDPTSTLGIYFEVVNQHNTPIPQGGRGAIQFVTHYQHSSTQRRIRVTTIARNWADVQSQLRHIEAAFDQEAAAVLMARLGVFRAESEEGPDVLRWLDRQLIRLCQKFGQYNKEDPTSFRLSDSFSLYPQFMFHLRRSPFLQVFNNSPDESSYYRHHFARQDLTQSLIMIQPILYSYSFHGPPEPVLLDSSSILADRILLMDTFFQIVIYLGETIAQWRKAGYQDMPEYENFKHLLQAPLDDAQEILQARFPMPRYINTEHGGSQARFLLSKVNPSQTHNNLYAWGQETGAPILTDDVSLQVFMDHLKKLAVSSAC
partner: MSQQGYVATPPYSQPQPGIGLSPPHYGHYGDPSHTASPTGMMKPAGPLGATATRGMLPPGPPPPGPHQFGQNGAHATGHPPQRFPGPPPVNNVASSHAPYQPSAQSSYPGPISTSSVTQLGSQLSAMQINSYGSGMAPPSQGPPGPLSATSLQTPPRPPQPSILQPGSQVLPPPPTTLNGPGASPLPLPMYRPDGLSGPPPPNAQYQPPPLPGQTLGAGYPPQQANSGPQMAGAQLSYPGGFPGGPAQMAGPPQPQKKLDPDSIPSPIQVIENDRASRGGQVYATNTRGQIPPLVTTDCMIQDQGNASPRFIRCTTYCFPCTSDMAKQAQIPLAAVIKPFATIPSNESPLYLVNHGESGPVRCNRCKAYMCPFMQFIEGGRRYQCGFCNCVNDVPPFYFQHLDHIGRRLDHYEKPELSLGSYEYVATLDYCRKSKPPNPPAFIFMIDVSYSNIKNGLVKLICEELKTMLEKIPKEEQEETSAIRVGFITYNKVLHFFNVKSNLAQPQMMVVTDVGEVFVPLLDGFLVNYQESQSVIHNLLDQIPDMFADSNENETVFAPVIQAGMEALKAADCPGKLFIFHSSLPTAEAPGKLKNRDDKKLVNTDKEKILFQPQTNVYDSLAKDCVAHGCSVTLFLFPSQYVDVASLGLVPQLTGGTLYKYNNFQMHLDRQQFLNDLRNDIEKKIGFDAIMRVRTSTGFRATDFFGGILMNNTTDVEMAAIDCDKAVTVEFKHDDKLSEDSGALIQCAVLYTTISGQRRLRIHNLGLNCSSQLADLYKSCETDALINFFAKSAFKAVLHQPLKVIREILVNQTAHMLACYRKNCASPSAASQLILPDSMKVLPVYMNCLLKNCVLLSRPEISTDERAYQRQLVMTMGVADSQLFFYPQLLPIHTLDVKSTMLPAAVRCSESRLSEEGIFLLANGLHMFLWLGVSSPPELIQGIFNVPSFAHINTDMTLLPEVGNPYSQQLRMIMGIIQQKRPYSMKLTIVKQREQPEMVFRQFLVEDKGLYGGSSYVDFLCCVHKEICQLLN
B2: Ornithine decarboxylase antizyme 3 (Homo sapiens), Q9UMX2 (parent)
chain: MPCKRCRPSVYSLSYIKRGKTRNYLYPIWSPYAYYLYCYKYRITLREKMLPRCYKSITYKEEEDLTLQPRSCLQCSESLVGLQEGKSTEQGNHDQLKELYSAGNLTVLATDPLLHQDPVQLDFHFRLTSQTSAHWHGLLCDRRLFLDIPYQALDQGNRESLTATLEYVEEKTNVDSVFVNFQNDRNDRGALLRAFSYMGFEVVRPDHPALPPLDNVIFMVYPLERDVGHLPSEPP
partner: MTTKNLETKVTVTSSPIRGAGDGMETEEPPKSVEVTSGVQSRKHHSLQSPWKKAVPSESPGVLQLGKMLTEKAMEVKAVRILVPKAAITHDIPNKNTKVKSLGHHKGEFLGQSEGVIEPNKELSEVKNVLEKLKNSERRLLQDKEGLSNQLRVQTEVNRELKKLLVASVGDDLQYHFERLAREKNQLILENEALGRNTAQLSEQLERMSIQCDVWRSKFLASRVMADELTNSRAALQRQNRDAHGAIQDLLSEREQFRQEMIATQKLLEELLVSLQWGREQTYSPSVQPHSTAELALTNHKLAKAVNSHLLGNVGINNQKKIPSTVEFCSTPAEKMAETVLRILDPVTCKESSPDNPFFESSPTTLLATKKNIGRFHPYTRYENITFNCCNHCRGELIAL
B3: Adenosylhomocysteinase (Homo sapiens), P23526 (parent)
chain: MSDKLPYKVADIGLAAWGRKALDIAENEMPGLMRMRERYSASKPLKGARIAGCLHMTVETAVLIETLVTLGAEVQWSSCNIFSTQDHAAAAIAKAGIPVYAWKGETDEEYLWCIEQTLYFKDGPLNMILDDGGDLTNLIHTKYPQLLPGIRGISEETTTGVHNLYKMMANGILKVPAINVNDSVTKSKFDNLYGCRESLIDGIKRATDVMIAGKVAVVAGYGDVGKGCAQALRGFGARVIITEIDPINALQAAMEGYEVTTMDEACQEGNIFVTTTGCIDIILGRHFEQMKDDAIVCNIGHFDVEIDVKWLNENAVEKVNIKPQVDRYRLKNGRRIILLAEGRLVNLGCAMGHPSFVMSNSFTNQVMAQIELWTHPDKYPVGVHFLPKKLDEAVAEAHLGKLNVKLTKLTEKQAQYLGMSCDGPFKPDHYRY
B4: Vacuolar protein sorting-associated protein 37B (Homo sapiens), Q9H9H4 (parent)
chain: MAGAGSEARFAGLSLVQLNELLEDEGQLTEMVQKMEETQNVQLNKEMTLASNRSLAEGNLLYQPQLDTLKARLTQKYQELQVLFEAYQIKKTKLDRQSSSASLETLLALLQAEGAKIEEDTENMAEKFLDGELPLDSFIDVYQSKRKLAHMRRVKIEKLQEMVLKGQRLPQALAPLPPRLPELAPTAPLPYPAPEASGPPAVAPRRIPPPPPPVPAGRLATPFTAAMSSGQAVPYPGLQCPPLPPRVGLPTQQGFSSQFVSPYPPPLPQRPPPRLPPHQPGFILQ
partner: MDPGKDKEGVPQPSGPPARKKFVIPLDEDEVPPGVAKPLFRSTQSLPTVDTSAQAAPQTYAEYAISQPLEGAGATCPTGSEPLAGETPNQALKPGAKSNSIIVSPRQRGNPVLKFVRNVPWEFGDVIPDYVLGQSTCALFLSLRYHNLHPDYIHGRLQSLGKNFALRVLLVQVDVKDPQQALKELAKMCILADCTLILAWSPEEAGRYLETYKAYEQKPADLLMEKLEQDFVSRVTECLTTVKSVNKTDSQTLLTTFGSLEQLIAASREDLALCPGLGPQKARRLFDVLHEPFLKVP
B5: Protein SPMIP9 (Homo sapiens), Q96LM6 (parent)
chain: MAGVKYPGQDPVDLDIYQSSHMVDYQPYRKHKYSRVTPQEQAKLDAQLRDKEFYRPIPNPNPKLTDGYPAFKRPHMTAKDLGLPGFFPSQEHEATREDERKFTSTCHFTYPASHDLHLAQGDPNQVLQSADFPCLVDPKHQPAAEMAKGYLLLPGCPCLHCHIVKVPILNRWGPLMPFYQ
partner: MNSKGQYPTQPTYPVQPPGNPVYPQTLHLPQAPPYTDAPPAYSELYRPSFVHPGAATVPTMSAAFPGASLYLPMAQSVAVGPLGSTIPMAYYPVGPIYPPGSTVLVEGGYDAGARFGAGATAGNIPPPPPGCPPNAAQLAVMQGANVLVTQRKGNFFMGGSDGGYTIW

Variants of B1 are the subject of one test. The settings on record: with sc24d_human SEC24D.
For the variant V426I, the “effect of a mutation on the interaction” value is recorded as “with no effect”.

In the next test the parent is B2. The settings on record: with go45_human BLZF1, Q9H2G9.
On to V174A, for which the “effect of a mutation on the interaction” value is recorded as “disrupting interaction strength”.
On to R193Q, for which the “effect of a mutation on the interaction” value was “with no effect”.

Variants of B3 are the subject of the next test. The settings on record: with ca050_human C1orf50, Q9BV19.
ca050_human C1orf50, Q9BV19, sequence (Q9BV19 whole entry): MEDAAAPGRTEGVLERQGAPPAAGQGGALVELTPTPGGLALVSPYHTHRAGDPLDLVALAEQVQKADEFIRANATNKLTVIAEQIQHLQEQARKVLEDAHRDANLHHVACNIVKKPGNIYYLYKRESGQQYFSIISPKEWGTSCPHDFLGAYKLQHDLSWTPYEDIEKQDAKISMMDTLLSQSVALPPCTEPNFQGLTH
In the case of I92V, the “effect of a mutation on the interaction” value was “with no effect”.

The variants in a further test derive from B4. The following applies: with ercc1_human ERCC1, P07992.
With M151I, the “effect of a mutation on the interaction” value was “with no effect”.

Variants of B5 are the subject of another test. The settings on record: with dazp2_human DAZAP2, Q15038.
I16V: the “effect of a mutation on the interaction” value is on record as “with no effect”.
